Reference: the domain aggregation screens of Martell et al. (2025)

Assay: soluble fraction after stress (log2 fold change); higher = more stays soluble; pooled small domains, quantitative proteomics
Details: stress: pH 4
Summary of the method: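 How much of each domain stays soluble after acid stress, expressed as a fold change, is used to gauge aggregation propensity. Pooled custom libraries of small domains underwent pH 4 stress before high-throughput quantitative proteomics. A higher log2 value means more of the domain stayed soluble.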

Sequence | soluble fraction (log2)
HMWDEMKDQKLVEALLLLREDERKLIYQHVFEERTFDDISRINGLPPYKVKGIYYYAIRKIRKWMG | -0.425
HMETIGKRVRAARQELGLTMKQLHEQTGLSTGNISDIENDRNTPSVSSLVALGRALRRSLDWLLTGEE | -0.555
HMTQRRLQSELDSIPGVGAGTRTKLLRTLGSVDAVLRASEAELLAAGANRRQVASIQAHAAAVER | 0.0567
HMDYEVPEELQQKFEEFPRLKEAFYQLTPGRQHQYLYYFSQAKRSQTRYNRIDKYMNAILQGKGMK | 0.167
HMANYHDIAADLRSKINHGFYEEEKKLPKQSELAADYQTSRVTIQKALNILQMEGIIYGKKGTGTFIRDSY | 0.0346
HMHPARITATVRVGEGDLVDIEREAELGGPIHSKGVMILSSFLGARYARTVPLSLSASLVFEQSY | 0.0113
HMDEKVTIPSVSGLLLSEAKTKLVDAGLTVETVYDDESKEAKDTVLSQSPLQYGKVDKGTVVTLTVSSGKG | 0.417
HMKEVELENMIKAKGFKDAAVLVDERSVTVIVESERLAAGDSASIKELVSRGTGVDPQNVVII | -0.295
HMDPLGHVIKKKRLQLGMTLRDLAAKAGVHHATIDRIETDQFKVVDPSTLVKIAEALHLDQLYLLSLN | -0.532
HMVMSTDAELILEYLAKHQGEMEITDKSSPELIMDTFNMSKGAFKRALGSLYKSKTVVIESTKVLLNT | -0.0971
HMDAKQLQSLKNNNEQLAGFIVRLTNFYEGLSPDIDAELSKLRSHLSGKVDYTLATVSINKINQLFMLEP | -1.75
HMQVAPDLMQRLTSQGHVDEKLSDALVHARQITNFEGRRRQMQFIGKLMRKLSEESIEAVKDALNEQRM | -0.244
HMQKPIKPVKMHTVGPKENLSSIGRMYEVNGRVLANYNNIDYDKGLTIGQVLKIPPKGTTLEQVT | 0.0149
HMLSKEERRSQLLDLGVRLLSTRSLDELSIDLLAEEAGISRGLLYHYFGNKHDFHEAVVRRAADDLI | -1.12
HMDKENVLQLQKDLLRLSVNALEKRYYQFSDILLLKYILPLVPKEISIDDQSRLRSLLSGIN | -0.754
HMEQYFEDEELNDKFLEFLAMRKRVRKPVQTDRGMKMLLTSLHKLSGGDVGLMKQIIDQSLDNEWKKFVA | -1.12
HMQDTRSHARKMLAAIEALLEGRSGSDIQAYTIHNRSITKMTVPELVKWRSYYQQQVRSEDAAASLA | 0.206
HMNDTLGVNIKRLRKEKGMTQDEVAKAVYTTRYNILRYESGKMTPSSEVIERLEKALGVPTGSLAQ | -0.0881
HMEDPPISQEQRQALFKMAHDHLGKDEGNKAILTLIQSHGLNSTTGMKVSTYNTIMEELVSTIQSLAA | 0.0682
HMHETMGQIIKRLRKERGLTQESLAERLGVTFQAVSKWETDAGMPDVSQIVPLANAFGVRTDVLFGLEGRD | 0.187
HMDISKTLGKNPLLIIDNIEYRGKTLDEITAMTGVKRFENIDIYGSEEAMKTYGEKAKDGVIIAYTT | -0.62
HMAAMDMFVKLDALDAELTEQLKALPAEPDDARVERGLALLTDYDHRIKALLTEIFGGENDFDKVL | -2.25
HMSIHPRDKADLGTALSKWKKGALDDKQLELEVARVFMRTYGKKLEGQALNKAVAAWVAALTQSKK | ≥ 0.43
HMYPMQNYSTIIGVIELRQQSVGYATTQKRYGIGSSTVTLIMKRFKELGLTLEELRAMPPKAVEVAFYPPE | 0.246
HMPVVKIPFILTEGPSSITKVIEIDADEILELKDVFQEDDKLWSINQIEMNDGRYVKHSDASLIVRASALR | -0.183
HMVFRFELQPSSATPLYRQIVEQVTRAVAAGVLRDGEELPSVRAVAQEYVINPMTVSKAYSLLEAQSI | -0.34
HMQLPTNAAAILRYLSSGAVKGVGSATAVRIVEKFGEETLNILEQDPLRLAEIRGISRDKAKKIGEDFASQ | 0.0714
HMKNMSLGERIKEQRKSSGLSQEKVAEFVGVSRQAVTKWETGQSAPSTENLFKLAEIFGTTVDILLA | -0.0228

Sequence | soluble fraction (log2)
HMKDDLTWSEGLMPNVVGMGLRDAMFMLENSGLRVNYSGRGKVTRQSPQPGVRIKRGATVAIELRL | 0.0273
HMIPDAIDPDGRFKWRAGEAVVGFGRHAGEPLKKIAIENPEFLRWILKADFSTDVKKIASDALKGYFPEK | 0.284
HMSVNAPMPGKIVNVLVSEGQKVNSGDVLLILEAMKMQNEIAATQAGTVKAINVAAGQSVKVGDALVN | -0.147
HMDSNISVSEALEMVDKGSVKEIIVEGEKLYITNQDGKQYTSSKEVGVSLIELMKDSGIDPIKSDVNIIVK | -0.703
HMDKSPMIGTAEYEGVLYWRQTKDNGATWEWITDKNGDKMPVSGPAPAVGIDKDGYWTVNGESTGVLAKD | -0.0267
HMGEQETILKGDVNRDGVVDVNDVTHLQIHISNDDKNPLIDVTNKAWFDAADMYGDGKLDILDATALQIYI | -0.145
HMTRHIQVNDSIASTPIEDVYFSTRTYNALLNNGISVIGDLSKYTHDDLYASFQGLGRAGVLEIEAYLRQD | -1.32
HMTDEYYSYIGKTGTTITVLRPAGIAEVEGERLNVVSEGEFIRKGAAILVKEVEGARILVEEVN | 0.349
HMAEVPDLRNKTQQEAEAELTNHNLKLGNVTEEYSATVEAGRVISQSTSYGTKVLEGSSVDITISKGPEPT | 0.156
HMAFGTGTVTASSLRVREDASTSAATLDTLSKGSKVSVLADEQDGFYKVQIGEQVGYMSAEYLDVTE | -0.269
HMSSEPASLVGKTGVAASVLRPSGRVEVNGEYYDAVSINGFIEKGESVFVHKYENAQLYVSKNSE | -0.183
HMTSKIIIGDSYSKINKLLGEPENMKKRKFLDNEYLMVLYSINKKNYRLYFKDNILFELEDI | -0.582
HMQQELDAFKLLITVSGVGPKAAMAVLSVLPPDRLSIAVSSGDVKSIQSAQGVGKKTAERIVLELKDKM | -0.976
HMNSSLFLARQVHALRKKAGLTLQQLSRKSDVSVSTLSKIEKGQLSPTYEKIVSLARGLDVPIAALFHE | ≥ 0.43
HMKVLFLESIEGSASMGEIKDVANGYARNFLFPNGFAVPATPKNLKNVEELQAKELEIQTERDNWAA | -0.713
HMQMKDRILRIMEHEGISPSKFAEEIGIQRSAMSHIISGRNNPSLDVLTKIMQRFTYVDTDWLLFGKGSMV | -0.334
HMNHYIGVDRAKEIALNHANLSETDVVFTKEKLENDDGGAEYEIEFHSGRTEYDYTIDAASGNIIEYDVDY | -0.17
HMPMPQDEVSYALGLSIGQNFKASGIKAITSEDFIAGLQDALAEREPQMTTERAREVINQLFMRLQQEESE | -0.784
HMETPQIVARGDLITMVFRSGSLVLTAKGKALENGAMGDTIRVVNSDSNKTLAARVSASREVTVSE | -0.146
HMHRGTPASIIAAAKQYLTGGQTVELYEREGGPWTFRLRTYLSETPYPEKVRASVEALKPAGVVFLYELQS | -0.112
HMVEPTDFTYLKAEVETAKALKQADYTVATWKSFAGELAEAEEVIAKTDASQAEVNEALSHLQAAEKELV | 0.215
HMDMDRRALLLALINDRYHASVAEFARAINKAPAQVHQWLSGNRALGNAGARDIEIRLNLAQGYFDH | 0.282
HMESGSSKINQDILETFTRGKKSLSISDISRLSGHHRHTVARYLDNLVSSGKLEMRQHGQKKKYYLSDIQP | 0.0709
HMVSFAEQASDWLAHFDRLGDVGPDTTLTDLTARDAEFSAWVNEGIHHRVAFLETLAAWHRTER | -0.0379
HMARAPIYPDGLTQREVEVLSLVAAGKTDREIAEELFIALRTVTTHVGNILNKIGAANRTEAAGYATRQGL | -1.4
HMTVEMYIGKTANVLETVTENNGRIAIFGEEWQAKSLNGETIEKGAQAKIVKNDSIIMYVVPI | -0.367
HMTSPVEDLLDKAIQLYREENFEEAIAKWEEVLALDPSKLEAKFNIEIAQDRIKEKQIQEDLKSS | -0.935
